In ChEMBL document CHEMBL3414448, “Advances in the discovery of novel antimicrobials targeting the assembly of bacterial cell division protein FtsZ” (Eur J Med Chem, 2015):

Compound: N=C(N)c1ccc(-c2cc3ccc(C(=N)N)cc3[nH]2)cc1
Experiment: Inhibition of Escherichia coli FtsZ assessed as reduction in substrate KM value

B1: Cell division protein FtsZ (Escherichia coli K-12), P0A9A6 (protein)
chain: MFEPMELTNDAVIKVIGVGGGGGNAVEHMVRERIEGVEFFAVNTDAQALRKTAVGQTIQIGSGITKGLGAGANPEVGRNAADEDRDALRAALEGADMVFIAAGMGGGTGTGAAPVVAEVAKDLGILTVAVVTKPFNFEGKKRMAFAEQGITELSKHVDSLITIPNDKLLKVLGRGISLLDAFGAANDVLKGAVQGIAELITRPGLMNVDFADVRTVMSEMGYAMMGSGVASGEDRAEEAAEMAISSPLLEDIDLSGARGVLVNITAGFDLRLDEFETVGNTIRAFASDNATVVIGTSLDPDMNDELRVTVVATGIGMDKRPEITLVTNKQVQQPVMDRYQQHGMAPLTQEQKPVAKVVNDNAPQTAKEPDYLDIPAFLRKQAD
Km: 29.4 µM
